Reference: publication PMC9458464, “The BAF A12T mutation disrupts lamin A/C interaction, impairing robust repair of nuclear envelope ruptures in Nestor–Guillermo progeria syndrome cells” (Nucleic Acids Research, 2022)

B1: lamin A/C Ig-fold domain (aa 411-566) (domain or fragment)
chain: GGGSVTKKRKLESTESRSSFSQHARTSGRVAVEEVDEEGKFVRLRNKSNEDQSMGNWQIKRQNGDDPLLTYRFPPKFTLKAGQVVTIWAAGAGATHSPPTDLVWKAQNTWGCGNSLRTALINSTGEEVAMRKLVRSVTVVEDDEDEDGDDLLHHHH
B2: BAF WT (barrier-to-autointegration factor, purified cysteine-free construct) (natural protein, human, UniProt O75531 1-89, looked up)
chain: GTTSQKHRDFVAEPMGEKPVGSLAGIGEVLGKKLEERGFDKAYVVLGQFLVLKKDEDLFREWLKDTAGANAKQSRDAFGALREWADAFL
notes: human barrier-to-autointegration factor (BAF, 89 amino acids); after tag cleavage the first residue is G instead of M; gene synthesized by Genscript in pETM13; also called BAF WT dimer; not shown: His8, N-terminal, cleaved
B3: BAF A12T (barrier-to-autointegration factor A12T, purified cysteine-free construct) (natural protein, human, UniProt O75531 1-89, looked up)
chain: GTTSQKHRDFVTEPMGEKPVGSLAGIGEVLGKKLEERGFDKAYVVLGQFLVLKKDEDLFREWLKDTAGANAKQSRDAFGALREWADAFL
notes: human barrier-to-autointegration factor (BAF, 89 amino acids); made by mutagenesis of the BAF WT expression vector (all cysteines to alanine, M1G after tag cleavage) with the NGPS mutation A12T; PDB 6GHD holds the parent (BAF WT); PDB 7Z21 holds this mutant; also called BAF A12T dimer; not shown: His8, N-terminal, cleaved

Legend:
[1] = target: T1, BAF WT (barrier-to-autointegration factor, purified cysteine-free construct) (human, UniProt O75531 1-89, M1G | C67A | C77A | C80A | C85A); assay: ITC; experiment 2
T1 sequence: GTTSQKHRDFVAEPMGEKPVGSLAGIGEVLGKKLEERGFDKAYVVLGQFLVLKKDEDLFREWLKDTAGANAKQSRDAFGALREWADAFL

[2] = target: T2, BAF A12T (barrier-to-autointegration factor A12T, purified cysteine-free construct) (human, UniProt O75531 1-89, M1G | A12T | C67A | C77A | C80A | C85A); assay: ITC; experiment 2
T2 sequence: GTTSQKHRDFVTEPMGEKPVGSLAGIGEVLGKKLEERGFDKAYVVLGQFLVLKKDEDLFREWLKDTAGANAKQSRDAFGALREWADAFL

[3] = target: T1, BAF WT (barrier-to-autointegration …); assay: ITC; experiment 1
[4] = target: T2, BAF A12T (barrier-to-autointegration …); assay: ITC; experiment 1
[5] = target: T1, BAF WT (barrier-to-autointegration …); assay: ITC
[6] = target: T2, BAF A12T (barrier-to-autointegration …); assay: ITC
[7] = target: T3, lamin A/C Ig-fold domain (aa 411-566) (human, UniProt P02545 411-566); assay: ITC; VP-ITC; 100 or 200 uM lamin A/C Ig-fold in the syringe, 20 uM BAF WT or 40 uM BAF A12T in the cell; 50 mM Hepes pH 7.4, 150 mM NaCl, 288 K; stoichiometry set to 0.5 in the fit; each experiment done twice; settings: both partners purified
T3 construct: human lamin A/C fragment from aa 411 to aa 566 (Ig-fold domain); 15N-labelled (grown in M9) for the NMR experiments; also called Igfold domain of lamin A/C; source: E. coli BL21* (DE3), purified (glutathione beads, thrombin cleavage, gel filtration)
T3 sequence (looked up): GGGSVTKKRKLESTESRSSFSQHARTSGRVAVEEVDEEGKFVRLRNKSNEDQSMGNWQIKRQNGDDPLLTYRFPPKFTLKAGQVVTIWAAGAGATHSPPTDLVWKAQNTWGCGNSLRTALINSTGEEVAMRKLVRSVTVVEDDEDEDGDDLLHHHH

[8] = target: T3, lamin A/C Ig-fold domain (aa 411-566); assay: NMR titration; 2D 1H-15N HSQC of 15N-labelled lamin A/C Ig-fold (80 uM; 160 uM in one sample) with unlabelled BAF at ratios 1:1 and 1:2; 50 mM HEPES pH 7.4, 150 mM NaCl, 293 K; peak intensity ratios I/Io; settings: both partners purified
[9] = target: the molecule itself; assay: crystal structure; BAF A12T-lamin A/C Ig-fold complex recovered after ITC (50 mM Hepes pH 7.4, 150 mM NaCl), about 20 mg/ml; sitting drop, 0.1 M bicine pH 9, 3 M ammonium sulfate; 1.6 A

Row | Binder | Kd [1] [µM] | Kd [2] [µM] | Kd [3] [µM] | Kd [4] [µM] | Kd [5] [µM] | Kd [6] [µM] | Kd [7] [µM] | percent of the initial NMR signals of the Ig-fold left at 1:1 ratio [8] [%] | percent of the initial NMR signals of the Ig-fold left at 1:2 ratio [8] [%] | stoichiometry N [9] | decrease of NMR signal intensity of the Ig-fold at 1:1 ratio [8] [%] | decrease of NMR signal intensity of the Ig-fold at 1:2 ratio [8] [%]
1 | B1 | 3.1 | 42 | 2.3 | 24 | 2.3 | 24 | – | – | – | – | – | –
2 | B2 | – | – | – | – | – | – | 2.7 ± 1.2 | 27 | 4 | – | – | –
3 | B3 | – | – | – | – | – | – | 33 ± 4 | – | – | 2 | 43 | 66
